Usually EC50 stands for the concentration at which the effect is half-maximal.

Assay [1] concerns the target T1, rmIGF-1R protein (R&D Systems, cat No 6630-GR/Fc) (murine, UniProt Q60751 31-936).
T1 construct: extracellular domain; bought; also called murine extracellular domain (ECD) of IGF-1R; not shown: Fc only implied by the catalogue number; not described
Kind of assay: ELISA, coated rm IGF-1R, SNT 5 ug/ml. As for the experimental part: (§1) In addition three ELISA were performed (either before or after cloning) to study the binding of antibodies on the recombinant human (hIGF-1R) and murine (mIGF-1R) proteins, and on the recombinant human Insulin Receptor (hIR) protein. […] The plates were then blocked with PBS containing 0.5% gelatin (#22151, Serva Electrophoresis GmbH, Heidelberg, Germany) for 2 h at 37° C. Once the saturation buffer discarded by flicking plates, 100 μl of each supernatant dilution were added to the wells (either undiluted hybridoma supernatant either supernatant serial dilutions) and incubated for 1 h at 37° C. […] Then, ELISA plates were washed 3-times and the TMB (#UP664782, Uptima, Interchim, France) substrate is added. After a 10 min incubation time at room temperature, the reaction was stopped using 1 M sulfuric acid and the optical density at 450 nm is measured.
(In an ELISA, binding on a coated surface is turned into a signal by an enzyme label.)

Assay [2] has as its target T2, human insulin receptor (on cells) (human, UniProt P06213 28-1382).
T2 construct: whole, on cells; on stably transfected cells or on IM9 cells; also called hIR; IR
Kind of assay: FACS on hIR+ transfected cells, 4°C. As for the experimental part:
In order to verify the absence of binding of both murine and chimeric antibodies on hIR, a stable cell line expressing the human IR was used. The recognition of human cell surface hIR by both murine and chimeric Ab was performed by FACS analyses. Increasing concentrations of either the murine or the chimeric mAbs were incubated on the hIR′ transfected cell line for 20 minutes at 4° C. in FACS buffer (PBS, 0.1% BSA, 0.01% NaN₃). Cells were then washed 3 times and incubated with the appropriate secondary antibody coupled with Alexa 488 before being incubated for 20 additional minutes at 4° C. in the dark and then washed 3 times in FACS buffer. The binding of anti-IGF-1R antibodies was immediately performed on viable cells which were identified using propidium iodide (that stains dead cells). The binding EC₅₀ expressed in molarity (M) was calculated using a nonlinear regression analysis (GraphPad Prims 4.0). […] The c9G4 was introduced as an irrelevant antibody (isotype control).

The target of assay [3] is T3, human IGF-1R (native, on cells) (human, UniProt P08069 31-1367).
T3 construct: also called hIGF-1R; native IGF-1R on MCF-7 cells
Kind of assay: FACS, Tf hIGF1R+ cells, Ab 5 ug/ml. A general note: Flow cytometry measures light scatter and fluorescence of single cells or particles in a stream.

For assay [4], the target named is T4, monkey IGF-1R (on COS-7 cells) (African green monkey).
T4 construct: whole, on cells
Kind of assay: FACS, Cos-7 (monkey IGF1R+), Ab 5 ug/ml.

Assay [5] concerns the target T1, rmIGF-1R protein (R&D Systems, cat No …). Kind of assay: ELISA, coated rmIGF-1R (Table 8). Here is the method: as §1
Assay [6] concerns the target T4, monkey IGF-1R (on COS-7 cells). Kind of assay: cell-based or functional assay.
Assay [7] has as its target T3, human IGF-1R (native, on cells). Kind of assay: cell-based or functional assay.
Assay [8] has the same target. Kind of assay: FACS, MCF7, 4°C, Ab 5 ug/ml. As for the experimental part:
Additionally an internalization assay was performed in order to select only internalizing antibodies. For this assay, the MCF7 tumor cell line was cultured in RMPI 1640 without phenol red with 1% L-glutamine and 10% of […] for 3 days before experiment. Cells were then detached using trypsin and 100 μl of a cell suspension at 4·10⁵ cell/ml are plated in 96-multiwell plates in RPMI1640 without phenol red with 1% L-glutamine and 5% FBS. After a 2 min centrifugation at 2000 rpm, cells were resupended in 50 μl of hybridoma supernatant or control antibody solutions (positive and isotype controls at 1 μg/ml). After a 20 min incubation time at 4° C., cells were centrifuged 2 min at 2000 rpm and resuspended in either cold (4° C.) or warm (37° C.) complete culture medium. Cells were then incubated for 2 hours either at 37° C. or at 4° C. Then cells were washed three times with FACS buffer. An Alexa 488-labeled goat anti-mouse IgG antibody was incubated for 20 minutes and cells were washed three times before FACS analysis on propidium iodide negative cell population.

The target is the same in assay [9]. Kind of assay: cell-based or functional assay. This is another data set of the same source.
Assay [10] has as its target T5, rhIR protein (R&D Systems, cat No 1544-IR/CF) (human, UniProt P06213-2 28-944).
T5 construct: extracellular domain; bought; also called rh Insulin R; recombinant human Insulin Receptor
Kind of assay: ELISA, coated rhIR 1 ug/ml. As for the experimental part: as §1

In assay [11] the target is T3, human IGF-1R (native, on cells). Kind of assay: cell-based or functional assay. This is another data set of the same source.
Assay [12] has the same target. Kind of assay: FACS titration, MCF-7. Here is the method: The binding properties of a series of anti-IGF-1R antibodies were evaluated by FACS analyses on the human MCF-7 breast adenocarcinoma cell line (ATCC#HTB-22) using increasing antibody concentrations. For that purpose, cells (1×10⁶ cells/ml) were incubated with anti-IGF-1R antibodies for 20 min. at 4° C. in FACS buffer (PBS, 0.1% BSA, 0.01% NaN₃). They were then washed 3 times and incubated with the appropriate secondary antibody coupled with Alexa 488 for 20 additional minutes at 4° C. in the dark before being washed 3 times in FACS buffer. The binding of anti-IGF-1R antibodies was immediately performed on viable cells which were identified using propidium iodide (that stains dead cells). The maximum of signal intensity obtained with each antibody was designed as Bₘₐₓ and expressed in mean of fluorescence intensity (MFI). The EC₅₀ of binding expressed in molarity (M) was calculated using a nonlinear regression analysis (GraphPad Prims 4.0).

The target is the same in assay [13]. Kind of assay: FACS titration, hIGF-1R transfected cells. As for the experimental part:
Briefly, increasing concentrations of chimeric mAbs were incubated with cells for 20 min at 4° C. in FACS buffer (PBS, 0.1% BSA, 0.01% NaN₃). Cells were then washed 3 times and incubated with the appropriate secondary antibody coupled with Alexa 488 before being incubated for 20 additional minutes at 4° C. in the dark and then washed 3 times in FACS buffer. The binding of anti-IGF-1R antibodies was immediately performed on viable cells which were identified using propidium iodide (that stains dead cells). The binding EC₅₀ expressed in molarity (M) was calculated using a nonlinear regression analysis (GraphPad Prims 4.0).

T1 sequence (Q60751 31-936): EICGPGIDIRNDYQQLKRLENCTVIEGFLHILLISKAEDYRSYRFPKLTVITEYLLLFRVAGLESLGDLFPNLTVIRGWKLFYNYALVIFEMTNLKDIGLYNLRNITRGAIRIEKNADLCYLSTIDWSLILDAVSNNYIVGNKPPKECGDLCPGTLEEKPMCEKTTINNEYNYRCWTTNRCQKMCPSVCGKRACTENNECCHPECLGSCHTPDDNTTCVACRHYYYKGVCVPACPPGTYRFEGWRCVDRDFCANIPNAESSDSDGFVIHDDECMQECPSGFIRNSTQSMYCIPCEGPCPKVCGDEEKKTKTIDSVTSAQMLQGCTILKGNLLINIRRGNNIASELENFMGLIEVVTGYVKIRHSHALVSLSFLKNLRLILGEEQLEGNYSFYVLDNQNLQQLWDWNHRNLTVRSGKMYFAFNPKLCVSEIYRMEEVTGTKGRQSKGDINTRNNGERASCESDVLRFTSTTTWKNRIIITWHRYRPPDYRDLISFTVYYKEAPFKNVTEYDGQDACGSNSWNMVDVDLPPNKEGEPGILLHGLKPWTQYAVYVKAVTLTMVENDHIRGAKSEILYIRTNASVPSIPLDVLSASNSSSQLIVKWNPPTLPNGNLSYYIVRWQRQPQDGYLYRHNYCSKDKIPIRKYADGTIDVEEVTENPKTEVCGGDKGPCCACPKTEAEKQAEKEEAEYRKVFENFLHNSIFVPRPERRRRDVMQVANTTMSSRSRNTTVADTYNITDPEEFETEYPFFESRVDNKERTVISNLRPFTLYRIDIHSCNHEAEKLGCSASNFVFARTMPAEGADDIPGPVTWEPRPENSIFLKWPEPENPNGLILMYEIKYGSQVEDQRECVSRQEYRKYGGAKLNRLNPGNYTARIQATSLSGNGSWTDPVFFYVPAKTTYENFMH

B1: m212A11 (antibody, V domains shown)
VH: QVQLQQSGPELVKPGASVKMSCKASGYTFTSYYIHWVKQRPGQGLEWIGWIWPGDGSTKYNEKFKGKTTLTADKSSSTAYMFLSSLTSEDSAVYFCASPMITPNYAMDYWGQGASVTVSS
VL: DIQMTQTTSSLSASLGDRVTISCRASQDINKYLNWYQQQPDGTVKLLIYYTSRLHSGVPSRFSGRGSGTDYSLTISNLEQEDIATYFCQQGSTLPYTFGGGTKLEIK
notes: murine mAb, hybridoma CNCM I-4773, group G2
B1: the “D.O 450 nm” value in assay [1] was found to be 0.102 D.O 450 nm. For the same molecule, the binding result in [2] is “no binding (tested: log [M] about -6.5 (about 3e-7 M))”; in assay [5] it was “no binding”; in [10], “no binding”. Also, the MFI in assay [3] was 2190 MFI; in [4], 125 MFI. Also, the “% internalisation” value in assay [6] was 73%. Further, the ΔMFI in assay [6] stood at 83 MFI. The “hIGF-1R phosphorylation in response to IGF-1 (western blot, MCF-7)” value in [7] was greater than 80%. Further, in assay [8], the “MFI 4°C” value was determined as 390 MFI. For the same molecule, the “HalfLife (decay of cell-surface bound antibody on MCF-7 at 37°C)” value in assay [9] is 14.3 min (unit from p-0380; none on the sheet).

B2: c212A11 (antibody, human IgG1, kappa, V domains shown)
VH: QVQLQQSGPELVKPGASVKMSCKASGYTFTSYYIHWVKQRPGQGLEWIGWIWPGDGSTKYNEKFKGKTTLTADKSSSTAYMFLSSLTSEDSAVYFCASPMITPNYAMDYWGQGASVTVSS
VL: DIQMTQTTSSLSASLGDRVTISCRASQDINKYLNWYQQQPDGTVKLLIYYTSRLHSGVPSRFSGRGSGTDYSLTISNLEQEDIATYFCQQGSTLPYTFGGGTKLEIKR
notes: group G2; also called chimeric 212A11
Regarding B2, in [11], the “% Internalization (MCF-7, 10 µg/ml, 4 h)” value turned out to be 80% and the ΔMFI turned out to be 322 MFI. In assay [12], this molecule registered a Bmax of 991 MFI and an EC50 of 0.67 nM. Also, in [6], the “% internalisation” value amounted to 75% and the ΔMFI is 98 MFI. Moreover, in assay [7], the “hIGF-1R phosphorylation, % of that induced by IGF-1 (MCF-7, Ab 10 µg/ml)” value (from here on “hIGF-1R phosphorylation, %”) is less than 20%. Moreover, in assay [13], the Bmax came to 2510 MFI and the midpoint of the response, the EC50, lay at 0.44 nM.

B3: c219D6 (antibody, human IgG1, kappa, V domains shown)
VH: QVQLQQSGPELVKPGDSVKMSCKASGYSFTSYFIHWVKQRPGQGLEWIGWIWPGDGSTKYNEKFKGKTTLTTDKSSSTAYMFLNSLTSEDSAVYFCASPMITPNYAMDYWGQGASVTVSS
VL: DIQMTQTTSSLSASLGDRVTISCRASQDISKYLNWYQQQPDGTVKLLIYYTSRLHSGVPSRFSGRGSGTDYSLTISNLEQEDIATYFCQQGSTLPYTFGGGTKLEIKR
notes: group G2; also called chimeric 219D6
As for B3, in assay [11], the “% Internalization (MCF-7, 10 µg/ml, 4 h)” value was determined as 80% and the ΔMFI amounted to 353 MFI. For the same molecule, in assay [12], the Bmax stood at 993 MFI and the EC50 was 0.47 nM. In assay [6], the “% internalisation” value was 74% and the ΔMFI was 102 MFI. In addition, the “hIGF-1R phosphorylation, %” value in assay [7] was less than 20%. In [13], this molecule came in with a Bmax of 2520 MFI and an EC50 of 0.55 nM.

B4: c213B10 (antibody, human IgG1, kappa)
heavy: not shown
light: DIQMTQTTSSLSASLGDRVTISCRASQDISKYLNWYQQQPDGTIKLLIYYTSRLHSGVPSRFSGRGSGTDYSLTITNLEQEDIATYFCQQGSALPYTFGGGTKLEIKRTVAAPSVFIFPPSDEQLKSGTASVVCLLNNFYPREAKVQWKVDNALQSGNSQESVTEQDSKDSTYSLSSTLTLSKADYEKHKVYACEVTHQGLSSPVTKSFNRGEC
notes: group G2; also called chimeric 213B10
Consider B4, for which, in assay [11], the “% Internalization (MCF-7, 10 µg/ml, 4 h)” value was 85% and the ΔMFI turned out to be 369 MFI. Further, in [12], the Bmax worked out at 1100 MFI and the EC50 came out at 0.44 nM. Further, in assay [6], the “% internalisation” value was found to be 73% and the ΔMFI was 101 MFI. Also, the “hIGF-1R phosphorylation, %” value in [7] was less than 20%. In [13], this molecule returned a Bmax of 2030 MFI and a concentration for a half-maximal effect (EC50) of 0.33 nM.

B5: c214F8 (antibody, human IgG1, kappa)
heavy: not shown
light: DIQMTQTTSSLSASLGDRVTFSCRASQDISKYLNWYQQQPDGTIKLLIYYTSRLHSGVPSRFSGRGSGTDYSLTITNLEQEDIATYFCQQGSALPYTFGGGTKLEIKRTVAAPSVFIFPPSDEQLKSGTASVVCLLNNFYPREAKVQWKVDNALQSGNSQESVTEQDSKDSTYSLSSTLTLSKADYEKHKVYACEVTHQGLSSPVTKSFNRGEC
notes: group G2; also called chimeric 214F8
Consider B5, for which, in assay [11], the “% Internalization (MCF-7, 10 µg/ml, 4 h)” value stood at 87% and the ΔMFI worked out at 403 MFI. For the same molecule, in assay [12], the Bmax was 1070 MFI and the response was half-maximal at 0.5 nM (EC50). Moreover, in assay [6], the “% internalisation” value is 72% and the ΔMFI is 98 MFI. For the same molecule, the “hIGF-1R phosphorylation, %” value in [7] is less than 20%. In [13], this molecule showed a Bmax of 2090 MFI and an EC50 of 0.27 nM.

B6: m219D6 (antibody, V domains shown)
VH: QVQLQQSGPELVKPGDSVKMSCKASGYSFTSYFIHWVKQRPGQGLEWIGWIWPGDGSTKYNEKFKGKTTLTTDKSSSTAYMFLNSLTSEDSAVYFCASPMITPNYAMDYWGQGASVTVSS
VL: DIQMTQTTSSLSASLGDRVTISCRASQDISKYLNWYQQQPDGTVKLLIYYTSRLHSGVPSRFSGRGSGTDYSLTISNLEQEDIATYFCQQGSTLPYTFGGGTKLEIK
notes: murine mAb, hybridoma CNCM I-4736, group G2
As for B6, the “D.O 450 nm” value in [1] was 0.112 D.O 450 nm. Also, the figures for the binding result in assay [2], in assay [5] and in assay [10] were “no binding (tested: log [M] about -6.5 (about 3e-7 M))”, “no binding” and “no binding”, respectively. The MFI in assay [3] is 2110 MFI; in [4], 114 MFI. The “% internalisation” value in [6] came to 71%. Besides, the ΔMFI in assay [6] is 80 MFI. In addition, the “hIGF-1R phosphorylation in response to IGF-1 (western blot, MCF-7)” value in assay [7] is greater than 80%. Moreover, in assay [8], the “MFI 4°C” value is 349 MFI. In [9], the “HalfLife (decay of cell-surface bound antibody on MCF-7 at 37°C)” value was 17.9 min (unit from p-0380; none on the sheet).

The values are drawn from patent US20170267766A1 (PIERRE FABRE MEDICAMENT, published 2017).
